Experimental findings from patent publication US20210388087A1 (Chugai, published 2021) are described below.

Substitutions are numbered along the chain they refer to. Names and notes keep the numbering of the source.

First the molecules themselves.
T1: Human CD3eg linker (human)
T1 construct: Single-chain construct; also called recombinant human CD3
T1 chain: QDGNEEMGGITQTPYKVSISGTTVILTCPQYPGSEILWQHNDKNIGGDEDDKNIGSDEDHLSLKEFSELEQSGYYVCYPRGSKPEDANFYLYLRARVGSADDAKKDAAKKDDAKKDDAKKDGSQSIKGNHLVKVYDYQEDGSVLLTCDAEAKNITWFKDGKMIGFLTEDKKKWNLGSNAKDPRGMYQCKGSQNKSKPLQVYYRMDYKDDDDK

B1: H183/L072 VH F27A (antibody, name in Kabat numbering, V domains shown)
VH: QVQLVESGGGLVQPGRSLRLSCAASGATFSNAWMHWVRQAPGKGLEWVAQIKDKGNAYAAYYAPSVKGRFTISRDDSKNSIYLQMNSLKTEDTAVYYCHYVHYASASTVLPAFGVDAWGQGTTVTVSS
VL: DIVMTQSPLSLPVTPGEPASISCQASQELVHMNRNTYLHWYQQKPGQAPRLLIYKVSNRFPGVPDRFSGSGSGTDFTLKISRVEAEDVGVYYCAQGTSVPFTFGQGTKLEIK
B2: H183/L072 VH A32V (antibody, name in Kabat numbering, V domains shown)
VH: B1 VH with A27F, A32V
VL: B1 VL
B3: H183/L072 VH A32I (antibody, name in Kabat numbering, V domains shown)
VH: B1 VH with A27F, A32I
VL: B1 VL
B4: H183/L072 VH A54I (antibody, name in Kabat numbering, V domains shown)
VH: B1 VH with A27F, A57I
VL: B1 VL
B5: H183/L072 VH A32T (antibody, name in Kabat numbering, V domains shown)
VH: B1 VH with A27F, A32T
VL: B1 VL
B6: H183/L072 VH A54H (antibody, name in Kabat numbering, V domains shown)
VH: B1 VH with A27F, A57H
VL: B1 VL
B7: H183/L072 VH A54F (antibody, name in Kabat numbering, V domains shown)
VH: B1 VH with A27F, A57F
VL: B1 VL
B8: H183/L072 VH A32G (antibody, name in Kabat numbering, V domains shown)
VH: B1 VH with A27F, A32G
VL: B1 VL
B9: H183/L072 VH A32K (antibody, name in Kabat numbering, V domains shown)
VH: B1 VH with A27F, A32K
VL: B1 VL
B10: H183/L072 VH A32S (antibody, name in Kabat numbering, V domains shown)
VH: B1 VH with A27F, A32S
VL: B1 VL
B11: H183/L072 VH A32L (antibody, name in Kabat numbering, V domains shown)
VH: B1 VH with A27F, A32L
VL: B1 VL
B12: H183/L072 VH A32H (antibody, name in Kabat numbering, V domains shown)
VH: B1 VH with A27F, A32H
VL: B1 VL
B13: H183/L072 VH A32F (antibody, name in Kabat numbering, V domains shown)
VH: B1 VH with A27F, A32F
VL: B1 VL
B14: H183/L072 VH A32Q (antibody, name in Kabat numbering, V domains shown)
VH: B1 VH with A27F, A32Q
VL: B1 VL
B15: H183/L072 VH A32Y (antibody, name in Kabat numbering, V domains shown)
VH: B1 VH with A27F, A32Y
VL: B1 VL
B16: H183/L072 VH A54D (antibody, name in Kabat numbering, V domains shown)
VH: B1 VH with A27F, A57D
VL: B1 VL
B17: H183/L072 VH A32R (antibody, name in Kabat numbering, V domains shown)
VH: B1 VH with A27F, A32R
VL: B1 VL
B18: H183/L072 VH A32E (antibody, name in Kabat numbering, V domains shown)
VH: B1 VH with A27F, A32E
VL: B1 VL
B19: H183/L072 VH A32M (antibody, name in Kabat numbering, V domains shown)
VH: B1 VH with A27F, A32M
VL: B1 VL
B20: H183/L072 VH A32N (antibody, name in Kabat numbering, V domains shown)
VH: B1 VH with A27F, A32N
VL: B1 VL
B21: H183/L072 VH A54E (antibody, name in Kabat numbering, V domains shown)
VH: B1 VH with A27F, A57E
VL: B1 VL
B22: H183/L072 VL Y32Q (antibody, name in Kabat numbering, V domains shown)
VH: B1 VH with A27F
VL: B1 VL with Y37Q
B23: H183/L072 VL V94M (antibody, name in Kabat numbering, V domains shown)
VH: B1 VH with A27F
VL: B1 VL with V99M
B24: H183/L072 VL Y32T (antibody, name in Kabat numbering, V domains shown)
VH: B1 VH with A27F
VL: B1 VL with Y37T
B25: H183/L072 VL V94R (antibody, name in Kabat numbering, V domains shown)
VH: B1 VH with A27F
VL: B1 VL with V99R
B26: H183/L072 VL Y32E (antibody, name in Kabat numbering, V domains shown)
VH: B1 VH with A27F
VL: B1 VL with Y37E
B27: H183/L072 VL Y32S (antibody, name in Kabat numbering, V domains shown)
VH: B1 VH with A27F
VL: B1 VL with Y37S
B28: H183/L072 VL Y32L (antibody, name in Kabat numbering, V domains shown)
VH: B1 VH with A27F
VL: B1 VL with Y37L
B29: H183/L072 VL V94I (antibody, name in Kabat numbering, V domains shown)
VH: B1 VH with A27F
VL: B1 VL with V99I
B30: H183/L072 VL V94N (antibody, name in Kabat numbering, V domains shown)
VH: B1 VH with A27F
VL: B1 VL with V99N
B31: H183/L072 VL Y32H (antibody, name in Kabat numbering, V domains shown)
VH: B1 VH with A27F
VL: B1 VL with Y37H
B32: H183/L072 VL Y32G (antibody, name in Kabat numbering, V domains shown)
VH: B1 VH with A27F
VL: B1 VL with Y37G
B33: H183/L072 VL V94S (antibody, name in Kabat numbering, V domains shown)
VH: B1 VH with A27F
VL: B1 VL with V99S
B34: H183/L072 VL Y32K (antibody, name in Kabat numbering, V domains shown)
VH: B1 VH with A27F
VL: B1 VL with Y37K
B35: H183/L072 VL Y32N (antibody, name in Kabat numbering, V domains shown)
VH: B1 VH with A27F
VL: B1 VL with Y37N
B36: H183/L072 VL Y32A (antibody, name in Kabat numbering, V domains shown)
VH: B1 VH with A27F
VL: B1 VL with Y37A
B37: H183/L072 VL V94Q (antibody, name in Kabat numbering, V domains shown)
VH: B1 VH with A27F
VL: B1 VL with V99Q
B38: H183/L072 VL V94K (antibody, name in Kabat numbering, V domains shown)
VH: B1 VH with A27F
VL: B1 VL with V99K
B39: H183/L072 VL V94P (antibody, name in Kabat numbering, V domains shown)
VH: B1 VH with A27F
VL: B1 VL with V99P
B40: H183/L072 VL V94T (antibody, name in Kabat numbering, V domains shown)
VH: B1 VH with A27F
VL: B1 VL with V99T
B41: H183/L072 VL Y32D (antibody, name in Kabat numbering, V domains shown)
VH: B1 VH with A27F
VL: B1 VL with Y37D
B42: H183/L072 VL V94L (antibody, name in Kabat numbering, V domains shown)
VH: B1 VH with A27F
VL: B1 VL with V99L

In one test the target is T2, Human CD137 ECD (human).
T2 construct: also called 4-1BB
T2 sequence (chain, as listed by the source limits assumed): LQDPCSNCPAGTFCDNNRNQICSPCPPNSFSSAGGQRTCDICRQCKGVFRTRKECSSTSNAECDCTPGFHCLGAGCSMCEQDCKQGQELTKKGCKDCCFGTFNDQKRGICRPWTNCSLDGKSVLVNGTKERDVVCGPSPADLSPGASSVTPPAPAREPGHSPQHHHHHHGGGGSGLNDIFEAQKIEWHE
The experiment in a line: single mutant vs template dBBDu183H.
B1: the “fold change of affinity” value was 0.3 fold.
Turning to B2, the “fold change of affinity” value came out at 3.7 fold.
As to B3, the “fold change of affinity” value was determined as 2.2 fold.
The same measure, in the same setting: for B4 the value was 0.5 fold.
Same read-out and setting: for B5 the value was 3.9 fold.
Same read-out and setting: the value for B6 was 1 fold; that for B7 was 0.9 fold.
Turning to B8, the “fold change of affinity” value came out at 0.1 fold.
On the same count and under the same terms, the value for B9 was 1 fold; that for B10 was 0.9 fold; that for B11 was 1.2 fold.
In the case of B12, the “fold change of affinity” value was 0.2 fold.
The same measure, in the same setting: the value for B13 was 0.1 fold; that for B14 was 1.6 fold.
Still for that read-out and setting: the value for B15 was 0 fold.
With B16, the “fold change of affinity” value came out at 1.1 fold.
Turning to B17, the “fold change of affinity” value is 0.3 fold.
Same read-out and setting: for B18 the value was 0.4 fold.
As for B19, the “fold change of affinity” value was found to be 1.6 fold.
As for B20, the “fold change of affinity” value amounted to 0.3 fold.
As for B21, the “fold change of affinity” value was 1 fold.

For a further test, the target named is T1, Human CD3eg linker. The test can be described thus: SPR; fold vs parent H183/L072.
For the molecule B22, the “fold change of affinity” value stood at 0 fold.
B23: the “fold change of affinity” value is 0.8 fold.
Regarding B24, the “fold change of affinity” value worked out at 0 fold.
In the case of B25, the “fold change of affinity” value stood at 0.5 fold.
Regarding B26, the “fold change of affinity” value was 0 fold.
Same read-out and setting: for B27 the value was 0 fold.
As for B28, the “fold change of affinity” value turned out to be 0 fold.
Still for that read-out and setting: for B29 the value was 0.8 fold.
As for B30, the “fold change of affinity” value came to 0.9 fold.
The same measure, in the same setting: the value for B31 was 0 fold; that for B32 was 0 fold; that for B33 was 0.7 fold.
Turning to B34, the “fold change of affinity” value was found to be 0 fold.
Still for that read-out and setting: the value for B35 was 0 fold; that for B36 was 0 fold.
The same measure, in the same setting: the value for B37 was 1 fold.
On the same count and under the same terms, for B38 the value was 0.4 fold; for B39, 1.5 fold; for B40, 1.3 fold.
For B41, the “fold change of affinity” value is 0 fold.
Consider B42, for which the “fold change of affinity” value stood at 0.3 fold.
